# Assay results reported in the supplement of paper PMC5998384.
# Experiments:
# HeLa Kyoto [1] = assay: solubility in G1/S (NP-40 vs SDS abundance) (log2 ratio); higher = more soluble; conditions: cell cycle stage: G1/S
# HeLa Kyoto [2] = assay: solubility change mitosis vs G1/S (difference of NP-40 vs SDS log2 ratios) (log2 ratio difference); higher = more soluble in mitosis
# 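For solubility change mitosis vs G1/S (difference of NP-40 vs SDS log2 ratios) in this document: synchronized HeLa Kyoto cells (double thymidine block for G1/S, nocodazole release for mitosis), protein amounts in NP-40 versus SDS lysates quantified by mass spectrometry, three biological replicates.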
# 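For solubility in G1/S (NP-40 vs SDS abundance) in this document: HeLa Kyoto cells arrested at G1/S by double thymidine block, proteins quantified by TMT10plex mass spectrometry in mild NP-40 versus SDS extracts, three biological replicates.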
sequence,measurement,setting,value
MDEDEFELQPQEPNSFFDGIGADATHMDGDQIVVEIQEAVFVSNIVDSDITVHNFVPDDPDSVVIQDVVEDVVIEEDVQCSDILEEADVSENVIIPEQVLDSDVTEEVSLPHCTVPDDVLASDITSTSMSMPEHVLTSESMHVCDIGHVEHMVHDSVVEAEIITDPLTSDIVSEEVLVADCAPEAVIDASGISVDQQDNDKASCEDYLMISLDDAGKIEHDGSTGVTIDAESEMDPCKVDSTCPEVIKVYIFKADPGEDDLGGTVDIVESEPENDHGVELLDQNSSIRVPREKMVYMTVNDSQQEDEDLNVAEIADEVYMEVIVGEEDAAVAAAAAAVHEQQIDEDEMKTFVPIAWAAAYGNNSDGIENRNGTASALLHIDESAGLGRLAKQKPKKKRRPDSRQYQTAIIIGPDGHPLTVYPCMICGKKFKSRGFLKRHMKNHPEHLAKKKYHCTDCDYTTNKKISLHNHLESHKLTSKAEKAIECDECGKHFSHAGALFTHKMVHKEKGANKMHKCKFCEYETAEQGLLNRHLLAVHSKNFPHICVECGKGFRHPSELRKHMRIHTGEKPYQCQYCEYRSADSSNLKTHIKTKHSKEMPFKCDICLLTFSDTKEVQQHTLVHQESKTHQCLHCDHKSSNSSDLKRHVISVHTKDYPHKCEMCEKGFHRPSELKKHVAVHKGKKMHQCRHCDFKIADPFVLSRHILSVHTKDLPFRCKRCRKGFRQQNELKKHMKTHSGRKVYQCEYCEYSTTDASGFKRHVISIHTKDYPHRCEYCKKGFRRPSEKNQHIMRHHKEVGLP [ZFY],solubility in G1/S (log2),HeLa Kyoto [1],-0.668
same,solubility change mitosis (log2),HeLa Kyoto [2],0.257
MDEQPRLMHSHAGVGMAGHPGLSQHLQDGAGGTEGEGGRKQDIGDILQQIMTITDQSLDEAQARKHALNCHRMKPALFNVLCEIKEKTVLSIRGAQEEEPTDPQLMRLDNMLLAEGVAGPEKGGGSAAAAAAAAASGGAGSDNSVEHSDYRAKLSQIRQIYHTELEKYEQACNEFTTHVMNLLREQSRTRPISPKEIERMVSIIHRKFSSIQMQLKQSTCEAVMILRSRFLDARRKRRNFNKQATEILNEYFYSHLSNPYPSEEAKEELAKKCGITVSQVSNWFGNKRIRYKKNIGKFQEEANIYAAKTAVTATNVSAHGSQANSPSTPNSAGSSSSFNMSNSGDLFMSVQSLNGDSYQGAQVGANVQSQVDTLRHVISQTGGYSDGLAASQMYSPQGISANGGWQDATTPSSVTSPTEGPGSVHSDTSN [PBX1],solubility in G1/S (log2),HeLa Kyoto [1],0.177
same,solubility change mitosis (log2),HeLa Kyoto [2],0.0731
MDGTEGSAGQPGPAERSHRSSVSSVGARAADVLVYLADDTVVPLAVENLPSLSAHELHRAVREVLQLPDIALDVFALWLVSPLLEVQLKPKHQPYKLGRQWPELLLRFTSAPDDDVAMDEPFLQFRRNVFFPKRRELQIHDEEVLRLLYEEAKGNVLAARYPCDVEDCEALGALVCRVQLGPYQPGRPAACDLREKLDSFLPAHLCKRGQSLFAALRGRGARAGPGEQGLLNAYRQVQEVSSDGGCEAALGTHYRAYLLKCHELPFYGCAFFHGEVDKPAQGFLHRGGRKPVSVAISLEGVHVIDSREKHVLLGLRFQELSWDHTSPEEEEPILWLEFDGDSEGTPVNKLLKIYSKQAELMSSLIEYCIELSQAAEPAGPQDSATGSPSDPSSSLAPVQRPKLRRQGSVVSSRIQHLSTIDYVEDGKGIRRVKPKRTTSFFSRQLSLGQGSYTVVQPGDSLEQG [FRMD8],solubility in G1/S (log2),HeLa Kyoto [1],0.248
same,solubility change mitosis (log2),HeLa Kyoto [2],-0.0705
MDILKSEILRKRQLVEDRNLLVENKKYFKRSELAKKEEEAYFERCGYKIQPKEEDQKPLTSSNPVLELELAEEKLPMTLSRQEVIRRLRERGEPIRLFGETDYDAFQRLRKIEILTPEVNKGLRNDLKAALDKIDQQYLNEIVGGQEPGEEDTQNDLKVHEENTTIEELEALGESLGKGDDHKDMDIITKFLKFLLGVWAKELNAREDYVKRSVQGKLNSATQKQTESYLRPLFRKLRKRNLPADIKESITDIIKFMLQREYVKANDAYLQMAIGNAPWPIGVTMVGIHARTGREKIFSKHVAHVLNDETQRKYIQGLKRLMTICQKHFPTDPSKCVEYNAL [PRPF18],solubility in G1/S (log2),HeLa Kyoto [1],0.178
same,solubility change mitosis (log2),HeLa Kyoto [2],0.09
MDSSIHLSSLISRHDDEATRTSTSEGLEEGEVEGETLLIVESEDQASVDLSHDQSGDSLNSDEGDVSWMEEQLSYFCDKCQKWIPASQLREQLSYLKGDNFFRFTCSDCSADGKEQYERLKLTWQQVVMLAMYNLSLEGSGRQGYFRWKEDICAFIEKHWTFLLGNRKKTSTWWSTVAGCLSVGSPMYFRSGAQEFGEPGWWKLVHNKPPTMKPEGEKLSASTLKIKAASKPTLDPIITVEGLRKRASRNPVESAMELKEKRSRTQEAKDIRRAQKEAAGFLDRSTSSTPVKFISRGRRPDVILEKGEVIDFSSLSSSDRTPLTSPSPSPSLDFSAPGTPASHSATPSLLSEADLIPDVMPPQALFHDDDEMEGDGVIDPGMEYVPPPAGSVASGPVVGVRKKVRGPEQIKQEVESEEEKPDRMDIDSEDTDSNTSLQTRAREKRKPQLEKDTKPKEPRYTPVSIYEEKLLLKRLEACPGAVAMTPEARRLKRKLIVRQAKRDRGLPLFDLDQVVNAALLLVDGIYGAKEGGISRLPAGQATYRTTCQDFRILDRYQTSLPSRKGFRHQTTKFLYRLVGSEDMAVDQSIVSPYTSRILKPYIRRDYETKPPKLQLLSQIRSHLHRSDPHWTPEPDAPLDYCYVRPNHIPTINSMCQEFFWPGIDLSECLQYPDFSVVVLYKKVIIAFGFMVPDVKYNEAYISFLFVHPEWRRAGIATFMIYHLIQTCMGKDVTLHVSASNPAMLLYQKFGFKTEEYVLDFYDKYYPLESTECKHAFFLRLRR [CSRP2BP],solubility in G1/S (log2),HeLa Kyoto [1],0.391
same,solubility change mitosis (log2),HeLa Kyoto [2],0.153
MDTDSQRSHLSSFTMKLMDKFHSPKIKRTPSKKGKPAEVSVKIPEKPVNKEATDRFLPEGYPLPLDLEQQAVEFMSTSAVASRSQRQKNLSWLEEKEKEVVSALRYFKTIVDKMAIDKKVLEMLPGSASKVLEAILPLVQNDPRIQHSSALSSCYSRVYQSLANLIRWSDQVMLEGVNSEDKEMVTTVKGVIKAVLDGVKELVRLTIEKQGRPSPTSPVKPSSPASKPDGPAELPLTDREVEILNKTTGMSQSTELLPDATDEEVAPPKPPLPGIRVVDNSPPPALPPKKRQSAPSPTRVAVVAPMSRATSGSSLPVGINRQDFDVDCYAQRRLSGGSHSYGGESPRLSPCSSIGKLSKSDEQLSSLDRDSGQCSRNTSCETLDHYDPDYEFLQQDLSNADQIPQQTAWNLSPLPESLGESGSPFLGPPFQLPLGGHPQPDGPLAPGQQTDTPPALPEKKRRSAASQTADGSGCRVSYERHPSQYDNISGEDLQSTAPIPSVPYAPFAAILPFQHGGSSAPVEFVGDFTAPESTGDPEKPPPLPEKKNKHMLAYMQLLEDYSEPQPSMFYQTPQNEHIYQQKNKLLMEVYGFSDSFSGVDSVQELAPPPALPPKQRQLEPPAGKDGHPRDPSAVSGVPGKDSRDGSERAPKSPDALESAQSEEEVDELSLIDHNEIMSRLTLKQEGDDGPDVRGGSGDILLVHATETDRKDLVLYCEAFLTTYRTFISPEELIKKLQYRYEKFSPFADTFKKRVSKNTFFVLVRVVDELCLVELTEEILKLLMELVFRLVCNGELSLARVLRKNILDKVDQKKLLRCATSSQPLAARGVAARPGTLHDFHSHEIAEQLTLLDAELFYKIEIPEVLLWAKEQNEEKSPNLTQFTEHFNNMSYWVRSIIMLQEKAQDRERLLLKFIKIMKHLRKLNNFNSYLAILSALDSAPIRRLEWQKQTSEGLAEYCTLIDSSSSFRAYRAALSEVEPPCIPYLGLILQDLTFVHLGNPDYIDGKVNFSKRWQQFNILDSMRCFQQAHYDMRRNDDIINFFNDFSDHLAEEALWELSLKIKPRNITRRKTDREEKT [RAPGEF1],solubility in G1/S (log2),HeLa Kyoto [1],-0.18
same,solubility change mitosis (log2),HeLa Kyoto [2],0.157
MDVDAEREKITQEIKELERILDPGSSGSHVEISESSLESDSEADSLPSEDLDPADPPISEEERWGEASNDEDDPKDKTLPEDPETCLQLNMVYQEVIQEKLAEANLLLAQNREQQEELMRDLAGSKGTKVKDGKSLPPSTYMGHFMKPYFKDKVTGVGPPANEDTREKAAQGIKAFEELLVTKWKNWEKALLRKSVVSDRLQRLLQPKLLKLEYLHQKQSKVSSELERQALEKQGREAEKEIQDINQLPEEALLGNRLDSHDWEKISNINFEGSRSAEEIRKFWQNSEHPSINKQEWSREEEERLQAIAAAHGHLEWQKIAEELGTSRSAFQCLQKFQQHNKALKRKEWTEEEDRMLTQLVQEMRVGSHIPYRRIVYYMEGRDSMQLIYRWTKSLDPGLKKGYWAPEEDAKLLQAVAKYGEQDWFKIREEVPGRSDAQCRDRYLRRLHFSLKKGRWNLKEEEQLIELIEKYGVGHWAKIASELPHRSGSQCLSKWKIMMGKKQGLRRRRRRARHSVRWSSTSSSGSSSGSSGGSSSSSSSSSEEDEPEQAQAGEGDRALLSPQYMVPDMDLWVPARQSTSQPWRGGAGAWLGGPAASLSPPKGSSASQGGSKEASTTAAAPGEETSPVQVPARAHGPVPRSAQASHSADTRPAGAEKQALEGGRRLLTVPVETVLRVLRANTAARSCTQKEQLRQPPLPTSSPGVSSGDSVARSHVQWLRHRATQSGQRRWRHALHRRLLNRRLLLAVTPWVGDVVVPCTQASQRPAVVQTQADGLREQLQQARLASTPVFTLFTQLFHIDTAGCLEVVRERKALPPRLPQAGARDPPVHLLQASSSAQSTPGHLFPNVPAQEASKSASHKGSRRLASSRVERTLPQASLLASTGPRPKPKTVSELLQEKRLQEARAREATRGPVVLPSQLLVSSSVILQPPLPHTPHGRPAPGPTVLNVPLSGPGAPAAAKPGTSGSWQEAGTSAKDKRLSTMQALPLAPVFSEAEGTAPAASQAPALGPGQISVSCPESGLGQSQAPAASRKQGLPEAPPFLPAAPSPTPLPVQPLSLTHIGGPHVATSVPLPVTWVLTAQGLLPVPVPAVVSLPRPAGTPGPAGLLATLLPPLTETRAAQGPRAPALSSSWQPPANMNREPEPSCRTDTPAPPTHALSQSPAEADGSVAFVPGEAQVAREIPEPRTSSHADPPEAEPPWSGRLPAFGGVIPATEPRGTPGSPSGTQEPRGPLGLEKLPLRQPGPEKGALDLEKPPLPQPGPEKGALDLGLLSQEGEAATQQWLGGQRGVRVPLLGSRLPYQPPALCSLRALSGLLLHKKALEHKATSLVVGGEAERPAGALQASLGLVRGQLQDNPAYLLLRARFLAAFTLPALLATLAPQGVRTTLSVPSRVGSESEDEDLLSELELADRDGQPGCTTATCPIQGAPDSGKCSASSCLDTSNDPDDLDVLRTRHARHTRKRRRLV [SNAPC4],solubility in G1/S (log2),HeLa Kyoto [1],0.0147
same,solubility change mitosis (log2),HeLa Kyoto [2],-0.0345
MDVHDLFRRLGAGAKFDTRRFSADAARFQIGKRKYDFDSSEVLQGLDFFGNKKSVPGVCGASQTHQKPQNGEKKEESLTERKREQSKKKRKTMTSEIASQEEGATIQWMSSVEAKIEDKKVQRESKLTSGKLENLRKEKINFLRNKHKIHVQGTDLPDPIATFQQLDQEYKINSRLLQNILDAGFQMPTPIQMQAIPVMLHGRELLASAPTGSGKTLAFSIPILMQLKQPANKGFRALIISPTRELASQIHRELIKISEGTGFRIHMIHKAAVAAKKFGPKSSKKFDILVTTPNRLIYLLKQDPPGIDLASVEWLVVDESDKLFEDGKTGFRDQLASIFLACTSHKVRRAMFSATFAYDVEQWCKLNLDNVISVSIGARNSAVETVEQELLFVGSETGKLLAVRELVKKGFNPPVLVFVQSIERAKELFHELIYEGINVDVIHAERTQQQRDNTVHSFRAGKIWVLICTALLARGIDFKGVNLVINYDFPTSSVEYIHRIGRTGRAGNKGKAITFFTEDDKPLLRSVANVIQQAGCPVPEYIKGFQKLLSKQKKKMIKKPLERESISTTPKCFLEKAKDKQKKVTGQNSKKKVALEDKS [DDX52],solubility in G1/S (log2),HeLa Kyoto [1],-1.37
same,solubility change mitosis (log2),HeLa Kyoto [2],1.04
MEAPEGGGGGPAARGPEGQPAPEARVHFRVARFIMEAGVKLGMRSIPIATACTIYHKFFCETNLDAYDPYLIAMSSIYLAGKVEEQHLRTRDIINVSNRYFNPSGEPLELDSRFWELRDSIVQCELLMLRVLRFQVSFQHPHKYLLHYLVSLQNWLNRHSWQRTPVAVTAWALLRDSYHGALCLRFQAQHIAVAVLYLALQVYGVEVPAEVEAEKPWWQVFNDDLTKPIIDNIVSDLIQIYTMDTEIP [FAM58A],solubility in G1/S (log2),HeLa Kyoto [1],-0.46
same,solubility change mitosis (log2),HeLa Kyoto [2],0.235
